Test results: patent publication US20220089656A1 (published 2022)

Biological target: T1, human ASIP (agouti-signaling protein, RnD Systems) (human, UniProt P42127 23-132)
T1 construct: Coated at 2 ug/ml; also called ASIP protein
T1 sequence (looked up): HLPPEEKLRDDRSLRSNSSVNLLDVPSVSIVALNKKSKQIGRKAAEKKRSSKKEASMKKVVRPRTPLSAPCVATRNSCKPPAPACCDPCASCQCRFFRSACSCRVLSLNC
Assay: ELISA: Protein M-HRP on coated human ASIP without antibody

B1: Protein M horseradish peroxidase (HRP) fusion protein (other)
chain: EQKLISEEDLAANQLTPTFYDNSCPNVSNIVRDTIVNELRSDPRIAASILRLHFHDCFVNGCDASILLDNTTSFRTEKDAFGNANSARGFPVIDRMKAAVESACPRTVSCADLLTIAAQQSVTLAGGPSWRVPLGRRDSLQAFLDLANANLPAPFFTLPQLKDSFRNVGLNRSSDLVALSGGHTFGKNQCRFIMDRLYNFSNTGLPDPTLNTTYLQTLRGLCPLNGNLSALVDFDLRTPTIFDNKYYVNLEEQKGLIQSDQELFSSPNATDTIPLVRSFANSTQTFFNAFVEAMDRMGNITPLTGTQGQIRLNCRVVNSNSGGGGSGGGGSGGGGSTNLVNQSGYALVASGRSGNLGFKLFSTQSPSAEVKLKSLSLNDGSYQSEIDLSGGANFREKFRNFANELSEAITNSPKGLDRPVPKTEISGLIKTGDNFITPSFKAGYYDHVASDGSLLSYYQSTEYFNNRVLMPILQTTNGTLMANNRGYDDVFRQVPSFSGWSNTKATTVSTSNNLTYDKWTYFAAKGSPLYDSYPNHFFEDVKTLAIDAKDISALKTTIDSEKPTYLIIRGLSGNGSQLNELQLPESVKKVSLYGDYTGVNVAKQIFANVVELEFYSTSKANSFGFNPLVLGSKTNVIYDLFASKPFTHIDLTQVTLQNSDNSAIDANKLKQAVGDIYNYRRFERQFQGYFAGGYIDKYLVKNVNTNKDSDDDLVYRSLKELNLHLEEAYREGDNTYYRVNENYYPGASIYENERASRDSEFQNEILKRAEQNGVTFDENIKRITASGKYSVQFQKLENDTDSSLERMTKAVEGLVTVIGEEKFETVDITGVSSDTNEVKSLAKELKTNALGVKLKL
notes: also called Protein M-HRP
Q: Does B1 bind?
A: no binding
